For the experiment, the target named is T1, HLA-A*0201 expressed on T2 cells (human).
T1 construct: also called HLA-A2
The experiment is described as follows: cell-based peptide binding assay on T2 cells.

B1: Rb485-493 (Rb7) peptide (peptide)
peptide: SLLACALEV
notes: also called Rb peptide
B1: the binding result is on record as “binds”.
